The source of these data is paper PMC7206793 (Science (New York, N.Y.), 2019).

Sequences and labels used below:
B1: Flag (N-terminus)- and V5 (C-terminus)-tagged recombinant human Lmbr1l protein (natural protein, UniProt Q6UX01 1-489, looked up)
chain: MEAPDYEVLSVREQLFHERIRECIISTLLFATLYILCHIFLTRFKKPAEFTTVDDEDATVNKIALELCTFTLAIALGAVLLLPFSIISNEVLLSLPRNYYIQWLNGSLIHGLWNLVFLFSNLSLIFLMPFAYFFTESEGFAGSRKGVLGRVYETVVMLMLLTLLVLGMVWVASAIVDKNKANRESLYDFWEYYLPYLYSCISFLGVLLLLVCTPLGLARMFSVTGKLLVKPRLLEDLEEQLYCSAFEEAALTRRICNPTSCWLPLDMELLHRQVLALQTQRVLLEKRRKASAWQRNLGYPLAMLCLLVLTGLSVLIVAIHILELLIDEAAMPRGMQGTSLGQVSFSKLGSFGAVIQVVLIFYLMVSSVVGFYSSPLFRSLRPRWHDTAMTQIIGNCVCLLVLSSALPVFSRTLGLTRFDLLGDFGRFNWLGNFYIVFLYNAAFAGLTTLCLVKTFTAAVRAELIRAFGLDRLPLPVSGFPQASRKTQHQ

Experiment [1] addresses T1, β-catenin (on the human protein microarray) (human, UniProt P35222 1-781).
T1 sequence (looked up): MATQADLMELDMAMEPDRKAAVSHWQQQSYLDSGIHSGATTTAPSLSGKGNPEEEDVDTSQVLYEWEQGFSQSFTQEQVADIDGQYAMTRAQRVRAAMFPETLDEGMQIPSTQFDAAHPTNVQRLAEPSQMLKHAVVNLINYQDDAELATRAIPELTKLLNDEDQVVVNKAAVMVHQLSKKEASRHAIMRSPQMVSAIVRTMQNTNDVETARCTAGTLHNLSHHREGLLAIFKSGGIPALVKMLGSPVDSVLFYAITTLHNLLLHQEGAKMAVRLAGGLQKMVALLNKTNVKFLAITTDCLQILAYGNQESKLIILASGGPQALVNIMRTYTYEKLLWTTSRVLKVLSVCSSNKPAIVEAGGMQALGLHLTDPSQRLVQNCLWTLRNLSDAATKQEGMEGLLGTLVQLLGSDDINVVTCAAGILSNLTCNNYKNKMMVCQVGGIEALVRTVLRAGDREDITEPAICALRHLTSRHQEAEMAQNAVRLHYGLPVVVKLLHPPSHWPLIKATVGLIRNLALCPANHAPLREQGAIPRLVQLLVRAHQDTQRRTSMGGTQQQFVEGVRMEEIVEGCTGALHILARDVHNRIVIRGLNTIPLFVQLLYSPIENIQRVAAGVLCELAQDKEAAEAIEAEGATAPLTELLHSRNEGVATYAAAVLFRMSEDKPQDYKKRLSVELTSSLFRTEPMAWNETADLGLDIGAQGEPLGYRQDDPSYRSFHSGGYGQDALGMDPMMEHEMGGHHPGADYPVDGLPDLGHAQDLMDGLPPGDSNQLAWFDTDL
Briefly: peptide or protein array.

Experiment [2] concerns the target B1. Briefly: peptide or protein array.

For B1, the binding result in experiment [1] is listed as “binds”.

B2: casein kinase 1 ε (on the human protein microarray) (natural protein, UniProt P49674 1-416, looked up)
chain: MELRVGNKYRLGRKIGSGSFGDIYLGANIASGEEVAIKLECVKTKHPQLHIESKFYKMMQGGVGIPSIKWCGAEGDYNVMVMELLGPSLEDLFNFCSRKFSLKTVLLLADQMISRIEYIHSKNFIHRDVKPDNFLMGLGKKGNLVYIIDFGLAKKYRDARTHQHIPYRENKNLTGTARYASINTHLGIEQSRRDDLESLGYVLMYFNLGSLPWQGLKAATKRQKYERISEKKMSTPIEVLCKGYPSEFSTYLNFCRSLRFDDKPDYSYLRQLFRNLFHRQGFSYDYVFDWNMLKFGAARNPEDVDRERREHEREERMGQLRGSATRALPPGPPTGATANRLRSAAEPVASTPASRIQPAGNTSPRAISRVDRERKVSMRLHRGAPANVSSSDLTGRQEVSRIPASQTSVPFDHLGK
As for B2, the binding result in experiment [2] is “binds”.
